The record followed here is the RNAGym collection of RNA variant scans (doi:10.7554/elife.80360).

Sequences and labels used below:
B1: HDV Ribozyme (parent)
chain: GGCCGGCAUGGUCCCAGCCUCCUCGCUGGCGCCGGCUGGGCAACAUUCCGAGGGGACCGUCCCCUCGGUAAUGGCGAAUGGGACCCA

Variants of B1 are the subject of this series. Description: self-cleavage, relative activity (ratio to wild type); higher = more cleavage; co-transcriptional.
As to U23G G50A, the self-cleavage was 0.614.

Turning to U23G G50C, the self-cleavage was found to be 0.767.

Consider U23G G82C, for which the self-cleavage was determined as 0.222.

As for U23A A70G, the self-cleavage worked out at 0.931.

Consider U23C U72G, for which the self-cleavage stood at 0.532.

Turning to U23C U72A, the self-cleavage was determined as 0.776.

Consider U23C C62G, for which the self-cleavage turned out to be 0.987.

Turning to U23C C62U, the self-cleavage is 1.03.

On to U23G C61A, for which the self-cleavage came to 0.743.

U23G C61U: the self-cleavage came to 0.923.

Take U23C A83C: the self-cleavage was found to be 0.302.

Take U23C A83G: the self-cleavage was determined as 0.742.

Turning to U23C A83U, the self-cleavage worked out at 0.767.

With U23A A77G, the self-cleavage was determined as 1.03.

Turning to U23G C49A, the self-cleavage was 0.831.

For U23G C49U, the self-cleavage was 0.867.

Regarding U23C C64A, the self-cleavage was determined as 0.743.

In the case of U23C C64G, the self-cleavage came out at 0.76.

For U23G C85A, the self-cleavage was 0.787.

As to U23C G29U, the self-cleavage stood at 0.142.

In the case of U23C G29A, the self-cleavage was 0.0665.

With U23C A70G, the self-cleavage turned out to be 0.95.

Turning to U23C A70C, the self-cleavage was found to be 0.939.

Regarding U23G A45U, the self-cleavage is 0.312.

As for C24A C61G, the self-cleavage turned out to be 0.678.

In the case of C24A C61U, the self-cleavage stood at 0.757.

As for U23C C61U, the self-cleavage was 0.975.

Consider U23C C61G, for which the self-cleavage was 0.945.

U23C C49G: the self-cleavage stood at 0.655.

For the variant U23C C49A, the self-cleavage is 0.987.

Consider U23C C49U, for which the self-cleavage is 0.852.

Take U23C G54U: the self-cleavage is 1.01.

U23C G54A: the self-cleavage was 0.888.

As to U23G U60G, the self-cleavage was 0.665.

As to C24A A51U, the self-cleavage amounted to 0.747.

With U23G U72A, the self-cleavage was 0.341.

For the variant U23G U72G, the self-cleavage was 0.214.

Regarding U23A C61U, the self-cleavage amounted to 1.25.

Regarding U23A G25C, the self-cleavage amounted to 0.208.

U23C A56C: the self-cleavage was 0.942.

On to U23C A56G, for which the self-cleavage was 0.87.

For the variant U23C C58U, the self-cleavage was determined as 0.928.

U23C C58G: the self-cleavage is 0.673.

Consider U23C C58A, for which the self-cleavage came out at 1.18.

With U23G G54C, the self-cleavage is 0.598.

As to C24A C66G, the self-cleavage was 0.731.

As to U23A U37G, the self-cleavage worked out at 0.415.

On to U23A U46A, for which the self-cleavage is 0.623.

As to U23A U46G, the self-cleavage was 1.06.

With U23A U46C, the self-cleavage amounted to 0.929.

Regarding U23A G55A, the self-cleavage was 0.969.

Regarding U23A G55C, the self-cleavage is 1.12.

For U23A C41U, the self-cleavage came to 1.14.

Turning to C24A A45U, the self-cleavage came to 0.541.

As for C24A A45G, the self-cleavage came to 0.898.

In the case of U23C C48A, the self-cleavage is 1.12.

As for U23C C48G, the self-cleavage was found to be 1.05.

As for U23C C48U, the self-cleavage was 0.806.

Turning to U23G A83G, the self-cleavage was determined as 0.237.

On to U23A C86G, for which the self-cleavage worked out at 0.85.

As for U23A C86U, the self-cleavage is 0.872.

For C24A C48G, the self-cleavage turned out to be 0.47.

Regarding C24A C48U, the self-cleavage came to 0.799.

In the case of U23A G40C, the self-cleavage was 0.181.

In the case of U23G C62A, the self-cleavage was found to be 0.712.

Consider U23G C62U, for which the self-cleavage came to 0.403.

Turning to U23C C41U, the self-cleavage is 0.959.

Take U23C C41A: the self-cleavage amounted to 0.789.

Turning to U23A U72A, the self-cleavage was 0.773.

U23A U72C: the self-cleavage is 0.332.

On to U23A G67U, for which the self-cleavage came to 0.849.

In the case of U23A G67A, the self-cleavage came to 0.782.

For the variant U23A G67C, the self-cleavage came to 1.22.

Turning to U23A C64G, the self-cleavage is 1.03.

U23A C64U: the self-cleavage came out at 0.935.

In the case of C24A C49A, the self-cleavage was found to be 0.65.

For U23A G31C, the self-cleavage came out at 0.44.

As to U23A G31U, the self-cleavage was 0.271.

Consider U23G A43G, for which the self-cleavage worked out at 0.138.

For the variant U23G A43C, the self-cleavage came out at 0.131.

In the case of U23A A78U, the self-cleavage stood at 0.256.

With U23G C84G, the self-cleavage came out at 0.388.

For U23G C84U, the self-cleavage was found to be 0.342.

With U23C A42C, the self-cleavage was determined as 0.161.

In the case of U23C A42U, the self-cleavage came out at 0.415.

For the variant U23C U46G, the self-cleavage came out at 0.739.

Take U23C U46A: the self-cleavage was 0.538.

Take U23C U46C: the self-cleavage stood at 0.745.

With U23C C33A, the self-cleavage worked out at 0.0378.

For the variant U23C C33G, the self-cleavage was determined as 0.

As to U23A G39A, the self-cleavage amounted to 0.408.

Regarding U23A C85G, the self-cleavage was found to be 0.942.

Take U23A C85A: the self-cleavage amounted to 0.68.

In the case of C24A C44G, the self-cleavage was 0.256.

Consider C24A C44U, for which the self-cleavage turned out to be 0.0831.

For the variant U23C C57U, the self-cleavage worked out at 0.743.

Consider U23C C57G, for which the self-cleavage amounted to 0.6.

For the variant U23C G81U, the self-cleavage was determined as 0.499.

U23G G68A: the self-cleavage was determined as 0.565.

For the variant U23A G73C, the self-cleavage was determined as 0.554.

Turning to U23A G73A, the self-cleavage was determined as 0.575.

Regarding U23G U47G, the self-cleavage amounted to 0.731.

Take U23G U47C: the self-cleavage was found to be 0.332.

As to U23G U47A, the self-cleavage is 0.864.

On to U23G G81C, for which the self-cleavage stood at 0.166.

Take U23G G81A: the self-cleavage is 0.0426.

Regarding U23G G81U, the self-cleavage came out at 0.117.

Consider U23G C57A, for which the self-cleavage is 0.656.

For U23G C57U, the self-cleavage is 0.785.

On to U23G C57G, for which the self-cleavage came out at 0.831.

Turning to U23G G35U, the self-cleavage came out at 0.283.

Turning to U23G G35A, the self-cleavage was determined as 0.324.

As for U23G G35C, the self-cleavage stood at 0.0639.

For U23A U47C, the self-cleavage was 1.14.

As for U23A G82U, the self-cleavage was found to be 0.425.

Consider U23A G82C, for which the self-cleavage came out at 0.326.

On to U23A G82A, for which the self-cleavage was 0.266.

As for C24A C57A, the self-cleavage was 0.842.

U23G G67A: the self-cleavage turned out to be 0.628.

With U23C U65C, the self-cleavage was found to be 1.02.

With U23C U65G, the self-cleavage came out at 0.95.

Turning to U23C U65A, the self-cleavage came to 1.09.

With U23A U69A, the self-cleavage was 1.01.

As for U23A U69C, the self-cleavage was 0.942.

Turning to U23G A51C, the self-cleavage came out at 0.63.

Regarding U23G A51U, the self-cleavage came out at 0.705.

Regarding U23G A51G, the self-cleavage came out at 0.8.

Regarding U23A U27A, the self-cleavage amounted to 0.675.

With U23C G40A, the self-cleavage came out at 0.8.

As for U23C G40C, the self-cleavage was determined as 0.0852.

For the variant U23G A70G, the self-cleavage is 0.59.

Consider U23C A87U, for which the self-cleavage stood at 0.953.

With U23C G38C, the self-cleavage came out at 0.277.

U23C G38A: the self-cleavage amounted to 0.17.

For C24A C63G, the self-cleavage was 0.723.

For C24A C63A, the self-cleavage was 0.882.

On to C24A C63U, for which the self-cleavage was 0.692.

In the case of U23C A71U, the self-cleavage came out at 0.808.

Turning to U23C A71C, the self-cleavage was determined as 0.415.

Take U23A G29C: the self-cleavage came to 0.0923.

Consider U23A G29A, for which the self-cleavage stood at 0.0804.

For the variant U23A G29U, the self-cleavage worked out at 0.

U23A G68C: the self-cleavage was found to be 0.831.

For U23A G68A, the self-cleavage was found to be 0.906.

Regarding U23A G68U, the self-cleavage was determined as 1.09.

Regarding U23C C32G, the self-cleavage came out at 0.0415.

U23C G39U: the self-cleavage was 0.716.

Consider U23C G39C, for which the self-cleavage came out at 0.244.

For U23A G34A, the self-cleavage stood at 0.121.

Regarding U23A G34U, the self-cleavage was determined as 0.149.

Turning to U23A G34C, the self-cleavage is 0.339.

As to U23A G74A, the self-cleavage is 0.465.

Take U23G G39U: the self-cleavage worked out at 0.405.

Take U23G C66U: the self-cleavage amounted to 0.65.

On to U23G C41A, for which the self-cleavage was 0.465.

U23C C85A: the self-cleavage was determined as 1.01.

As for U23A A71G, the self-cleavage came out at 0.8.

With U23A A71U, the self-cleavage amounted to 0.831.

As to U23C G76C, the self-cleavage was 1.05.

Turning to C24A A83G, the self-cleavage amounted to 0.626.

In the case of U23C A78G, the self-cleavage worked out at 0.739.

Turning to U23C A78U, the self-cleavage worked out at 0.151.

For C24A C58A, the self-cleavage was determined as 0.863.

On to C24A C58G, for which the self-cleavage worked out at 0.855.

For the variant C24A C58U, the self-cleavage came out at 0.742.

With U23C C66U, the self-cleavage was 0.95.

On to U23C C66G, for which the self-cleavage worked out at 0.923.
